Reference: the supplement of paper PMC7877785
± gives the uncertainty stated by the source.

Assay: self-splicing fitness, log relative to wild type (ln ratio); higher = more splicing; Tetrahymena group I intron in knt gene, E. coli kanamycin selection, DiMSum; sequences stand for … in CUCUCU…GGAGGGAAAAGUUAUCAGGCAUGCACCUGGUAGCUAGUCUUUAAACCAAUAGAUUGCAUCGGUUUAAAAGGCAAGACCGUCAAAUUGCGGGAAAGGGGUCAACAGCCGUUCAGUACCAAGUCUCAGGGGAAACUUUGAGAUGGCCUUGCAAAGGGUAUGGUAAUAAGCUGACGGACAUGGUCCUAACCACGCAGCCAAGUCCUAAGUCAACAGAUCUUCUGUUGAUAUGGAUGCAGUUCACAGACUAAAUGUCGGUCGGGGAAGAUGUAUUCUUCUCAUAAGAUAUAGUCGGACCUCUCCUUAAUGGGAGCUAGCGGAUGAAGUGAUGCAACACUGGAGCCGCUGGGAACUAAUUUGUAUGCGAAAGUAUAUUGAUUAGUUUUGGAGUACUCGUGGUCG
In short: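 Library with all eight P1ex-region intron nucleotides randomised, intron inside the knt kanamycin-resistance gene on pET-22b(+), in E. coli BL21(DE3). Cells grew overnight at 37°C or 30°C on LB agar with or without 25 μg/mL kanamycin (plus 100 μg/mL carbenicillin, 50 μM IPTG, 0.2% rhamnose), in six replicate transformations. Pooled colonies were amplicon-sequenced on Illumina HiSeq 2500. DiMSum fitness is the error-weighted combination of wild-type-normalised replicate fold changes, kanamycin versus none.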

Row | Sequence | self-splicing fitness (ln) (30 °C) | self-splicing fitness (ln) (37 °C)
1 | CCAGAGCAAUAUUACGCUCA | -3.24 ± 0.38 | -1.42 ± 0.37
2 | AGAUAGCAAUAUUACGAGAC | -3.94 ± 0.23 | -2.96 ± 0.22
3 | AAGUAGCAAUAUUACGCACG | -1.5 ± 0.13 | 0.587 ± 0.13
4 | CCAUAGCAAUAUUACGAACC | -1.85 ± 0.5 | –
5 | UCUUAGCAAUAUUACGGUUU | -3.61 ± 0.22 | -1.77 ± 0.2
6 | AAUAAGCAAUAUUACGGUGG | -4.07 ± 0.17 | -2.31 ± 0.13
7 | ACACAGCAAUAUUACGCCAA | -2.36 ± 0.11 | -2.54 ± 0.14
8 | AAGUAGCAAUAUUACGAUUA | -0.56 ± 0.1 | -0.688 ± 0.08
9 | CUGAAGCAAUAUUACGUACA | -2.36 ± 0.21 | -1.39 ± 0.25
10 | UAUCAGCAAUAUUACGCAAG | -0.949 ± 0.074 | 0.273 ± 0.097
11 | AGUGAGCAAUAUUACGCAAG | -2.68 ± 0.22 | -2.98 ± 0.26
12 | GGAUAGCAAUAUUACGCAAG | -1.28 ± 0.27 | -0.103 ± 0.34
13 | CCAUAGCAAUAUUACGGACG | -1.47 ± 0.11 | -1.21 ± 0.14
14 | ACUGAGCAAUAUUACGCCGG | -2.48 ± 0.3 | –
15 | GCGAAGCAAUAUUACGGAGU | -3.66 ± 0.2 | -3.43 ± 0.42
16 | AAAUAGCAAUAUUACGUACU | 0.159 ± 0.063 | 0.295 ± 0.091
17 | UACAAGCAAUAUUACGUAGU | -3.88 ± 0.17 | -2.18 ± 0.15
18 | GUAAAGCAAUAUUACGAGCC | -2.51 ± 0.33 | -2.56 ± 0.26
19 | AGACAGCAAUAUUACGUUAG | -3.69 ± 0.21 | -2.14 ± 0.15
20 | GACAAGCAAUAUUACGUCGG | -2.91 ± 0.14 | -2.43 ± 0.18

Row | Sequence | self-splicing fitness (ln) (30 °C) | self-splicing fitness (ln) (37 °C)
21 | AUAGAGCAAUAUUACGCCUA | -0.415 ± 0.11 | 0.144 ± 0.15
22 | GAGUAGCAAUAUUACGAUAC | -2.31 ± 0.21 | -2.92 ± 0.24
23 | GGUGAGCAAUAUUACGUGUA | -2.8 ± 0.25 | -3.22 ± 0.3
24 | AUGCAGCAAUAUUACGCGAG | -3.82 ± 0.17 | -0.707 ± 0.11
25 | CUAUAGCAAUAUUACGUGCC | -2.54 ± 0.32 | –
26 | GCGCAGCAAUAUUACGAAUU | -1.64 ± 0.14 | -0.932 ± 0.22
27 | CAUAAGCAAUAUUACGUAUG | -3.87 ± 0.2 | -2.74 ± 0.23
28 | ACGUAGCAAUAUUACGGGGG | -3.84 ± 0.2 | -2.44 ± 0.16
29 | GCAUAGCAAUAUUACGUUUU | -3.61 ± 0.19 | -1.82 ± 0.19
30 | UGUAAGCAAUAUUACGAAGA | – | -0.905 ± 0.37
31 | AACAAGCAAUAUUACGUCUA | -0.68 ± 0.053 | 0.247 ± 0.063
32 | AGGAAGCAAUAUUACGUUGA | – | -1.63 ± 0.46
33 | AUAUAGCAAUAUUACGAUGA | -0.834 ± 0.16 | -0.885 ± 0.17
34 | CGUCAGCAAUAUUACGCCGC | -2.76 ± 0.32 | -1.05 ± 0.27
35 | UUGCAGCAAUAUUACGUUUA | -1.31 ± 0.096 | -1.02 ± 0.088
36 | ACAUAGCAAUAUUACGUCUC | – | -2.01 ± 0.25
37 | AGGGAGCAAUAUUACGUGUG | -2.78 ± 0.17 | -3.07 ± 0.26
38 | CCUGAGCAAUAUUACGCGUU | -3.53 ± 0.29 | -3.12 ± 0.35
39 | GUGUAGCAAUAUUACGGAUA | -2.46 ± 0.23 | -0.0303 ± 0.17
